Consider one molecule from publication PMC8519570 (2021).

As usually defined, the Kd is the concentration at which binding is half-saturated.

The target in this experiment is DENV2 sE WT (soluble envelope protein E of dengue virus 2, wild type) (dengue virus 2 (strain 16681)). The experiment is described as follows: BLI. A general note: In BLI a coated tip is dipped into the sample, and binding shifts an interference pattern.

B1: EDE1 C10 quaternary epitope antibody (antibody, V domains shown)
VH: EVQLVESGAEVKKPGASVKVSCKASGYTFTSYAMHWVRQAPGQRLEWMGWINAGNGNTKYSQKFQDRVTITRDTSASTAYMELSSLRSEDTAIYYCARDKVDDYGDYWFPTLWYFDYWGQGTLVTVSS
VL: QSALTQPASVSGSPGQSITISCTGTSSDVGGFNYVSWFQQHPGKAPKLMLYDVTSRPSGVSSRFSGSKSGNTASLTISGLQAEDEADYYCSSHTSRGTWVFGGGTKLTVL
Molecule B1 yielded a dissociation constant Kd of more than 1000 nM.
